Measured values from article PMC6101581.
Where two headings read alike, the source gives them in different places.

Key:
RPA heterotrimer [1] = target: T1, RPA heterotrimer (UniProt P27694;P15927;P35244 1-616;1-270;1-121); test: EMSA
hUNG2 catalytic domain = hUNG2 catalytic domain (human, UniProt P13051 92-313); test: fluorescence anisotropy
hUNG2 full-length [2] = target: T2, hUNG2 full-length (human, UniProt P13051 1-313); test: fluorescence anisotropy
RPA heterotrimer [3] = target: T1, RPA heterotrimer; test: EMSA; remark: listed apart in the source
hUNG2 full-length [4] = target: T2, hUNG2 full-length; test: fluorescence anisotropy; remark: listed apart in the source

T1 sequence (P27694 whole entry, chain 1 of 3, the tested form may be a part): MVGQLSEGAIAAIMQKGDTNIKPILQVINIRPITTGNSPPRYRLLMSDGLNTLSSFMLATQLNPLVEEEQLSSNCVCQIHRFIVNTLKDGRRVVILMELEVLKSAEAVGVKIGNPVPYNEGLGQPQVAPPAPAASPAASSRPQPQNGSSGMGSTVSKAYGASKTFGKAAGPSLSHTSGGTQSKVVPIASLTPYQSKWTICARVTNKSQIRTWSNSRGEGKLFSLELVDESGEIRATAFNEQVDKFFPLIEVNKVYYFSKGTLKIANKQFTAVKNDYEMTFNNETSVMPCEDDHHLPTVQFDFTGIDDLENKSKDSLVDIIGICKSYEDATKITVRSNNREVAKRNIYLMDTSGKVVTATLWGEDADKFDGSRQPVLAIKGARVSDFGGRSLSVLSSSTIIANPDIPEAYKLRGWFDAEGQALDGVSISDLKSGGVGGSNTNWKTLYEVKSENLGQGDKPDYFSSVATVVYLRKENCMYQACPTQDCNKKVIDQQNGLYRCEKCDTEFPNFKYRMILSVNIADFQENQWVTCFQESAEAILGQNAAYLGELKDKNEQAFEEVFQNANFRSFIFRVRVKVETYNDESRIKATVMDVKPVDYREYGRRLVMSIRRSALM
T1 sequence (P15927 whole entry, chain 2 of 3, the tested form may be a part): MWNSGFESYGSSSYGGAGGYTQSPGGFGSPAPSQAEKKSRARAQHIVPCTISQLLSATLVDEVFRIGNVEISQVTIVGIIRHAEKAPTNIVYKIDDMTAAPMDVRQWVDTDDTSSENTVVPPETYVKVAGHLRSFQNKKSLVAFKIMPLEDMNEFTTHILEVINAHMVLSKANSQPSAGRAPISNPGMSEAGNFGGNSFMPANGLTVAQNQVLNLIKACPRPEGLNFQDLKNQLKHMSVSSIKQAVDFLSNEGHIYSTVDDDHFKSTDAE
T1 sequence (P35244 whole entry, chain 3 of 3, the tested form may be a part): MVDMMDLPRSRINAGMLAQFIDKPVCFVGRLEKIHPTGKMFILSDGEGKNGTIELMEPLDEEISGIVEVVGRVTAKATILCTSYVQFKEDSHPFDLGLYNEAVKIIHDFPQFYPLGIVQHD
T2 sequence (P13051 whole entry): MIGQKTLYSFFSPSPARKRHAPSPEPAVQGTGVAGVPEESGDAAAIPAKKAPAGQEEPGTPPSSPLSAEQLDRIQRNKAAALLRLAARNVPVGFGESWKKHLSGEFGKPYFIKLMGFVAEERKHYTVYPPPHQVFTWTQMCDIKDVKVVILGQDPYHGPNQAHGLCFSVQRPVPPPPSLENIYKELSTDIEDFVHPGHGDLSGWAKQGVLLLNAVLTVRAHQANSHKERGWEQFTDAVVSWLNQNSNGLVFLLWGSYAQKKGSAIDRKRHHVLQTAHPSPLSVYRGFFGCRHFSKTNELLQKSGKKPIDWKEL
Chain of hUNG2 catalytic domain (P13051 92-313): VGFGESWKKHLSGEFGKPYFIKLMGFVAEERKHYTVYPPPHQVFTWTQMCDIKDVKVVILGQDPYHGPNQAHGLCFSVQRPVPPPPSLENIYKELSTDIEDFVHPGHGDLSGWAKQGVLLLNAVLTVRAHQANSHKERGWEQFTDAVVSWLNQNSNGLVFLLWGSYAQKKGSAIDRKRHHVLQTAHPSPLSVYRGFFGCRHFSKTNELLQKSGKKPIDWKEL

B1: 55 bp duplex U9/U33 with 32 nt 5' overhang (oligos 9/10) (mixed)
DNA 1: ATCGAGCTGGACACCATCACTCCATATTGGTCACTTAGCTATCGATTCCCGCATGCTCTTAGCTATCGATTCACCTGAGACTAGTCA
DNA 2: TGACTAGTCTCAGGTGAATCGAUAGCTAAGAGCATGCGGGAATCGAUAGCTAAGT
modifications: two deoxyuridines in strand 2
Q: Does B1 bind (RPA heterotrimer [1])?
A: Result: binds

B2: 29 bp duplex (oligos 13/14) (dsDNA)
DNA 1: GGTGCTGGATAACTGCCGGGCCACGCGTG
DNA 2: CACGCGTGGCCCGGCAGTTATCCAGCACC
Q: B2 was tested. Which binding signal (hUNG2 catalytic domain) did it give?
A: The binding signal was 3 fold lower affinity than full-length hUNG2.

Q: Which binding signal (hUNG2 full-length [2]) does the source give for CACGCGTGGCCCGGCAGTTATCCAGCACC (ssDNA) [29 nt ssDNA (oligo 14)] here?
A: The binding signal was 3 fold higher affinity than N1 (29 bp dsDNA).

B3: 55 bp duplex U9/U33 with 32 nt 3' overhang (oligos 18/19) (mixed)
DNA 1: ACTGATCAGAGTCCACTTAGCTATCGATTCTCGTACGCCCTTAGCTATCGATTCACTGGTTATACCTCACTACCACAGGTCGAGCTA
DNA 2: TGAATCGAUAGCTAAGGGCGTACGAGAATCGAUAGCTAAGTGGACTCTGATCAGT
modifications: two deoxyuridines in strand 2
Q: Does B3 bind (RPA heterotrimer [3])?
A: Result: binds

B4: 29 bp duplex with 29 nt 5' ssDNA overhang (oligos 15/16) (mixed)
DNA 1: CACGCGTGGCCCGGCAGTTATCCAGCACCACTTAGCTATCGATTCCCGCATGCTCTGA
DNA 2: TCAGAGCATGCGGGAATCGATAGCTAAGT
Q: Does B4 bind (hUNG2 full-length [4])?
A: Result: binds

B5: 55 bp duplex U21/U45 with 32 nt 5' overhang (oligos 4/5) (mixed)
DNA 1: ATCGAGCTGGACACCATCACTCCATATTGGTCACTGCATGCTCTTCTTAGCTATCGATTCACCTGAGACCTTAGCTATCGATTCTCA
DNA 2: TGAGAATCGAUAGCTAAGGTCTCAGGTGAATCGAUAGCTAAGAAGAGCATGCAGT
modifications: two deoxyuridines in strand 2
Q: Does B5 bind (RPA heterotrimer [1])?
A: Result: binds
